B1: Adiponectin (Homo sapiens), Q15848 (parent)
chain: MLLLGAVLLLLALPGHDQETTTQGPGVLLPLPKGACTGWMAGIPGHPGHNGAPGRDGRDGTPGEKGEKGDPGLIGPKGDIGETGVPGAEGPRGFPGIQGRKGEPGEGAYVYRSAFSVGLETYVTIPNMPIRFTKIFYNQQNHYDGSTGKFHCNIPGLYYFAYHITVYMKDVKVSLFKKDKAMLFTYDQYQENNVDQASGSVLLHLEVGDQVWLQVYGEGERNGLYADNDNDSTFTGFLLYHDTN
B2: Retinol dehydrogenase 12 (Homo sapiens), Q96NR8 (parent)
chain: MLVTLGLLTSFFSFLYMVAPSIRKFFAGGVCRTNVQLPGKVVVITGANTGIGKETARELASRGARVYIACRDVLKGESAASEIRVDTKNSQVLVRKLDLSDTKSIRAFAEGFLAEEKQLHILINNAGVMMCPYSKTADGFETHLGVNHLGHFLLTYLLLERLKVSAPARVVNVSSVAHHIGKIPFHDLQSEKRYSRGFAYCHSKLANVLFTRELAKRLQGTGVTTYAVHPGVVRSELVRHSSLLCLLWRLFSPFVKTAREGAQTSLHCALAEGLEPLSGKYFSDCKRTWVSPRARNNKTAERLWNVSCELLGIRWE
B3: Arylsulfatase A (Homo sapiens), P15289 (parent)
chain: MGAPRSLLLALAAGLAVARPPNIVLIFADDLGYGDLGCYGHPSSTTPNLDQLAAGGLRFTDFYVPVSLCTPSRAALLTGRLPVRMGMYPGVLVPSSRGGLPLEEVTVAEVLAARGYLTGMAGKWHLGVGPEGAFLPPHQGFHRFLGIPYSHDQGPCQNLTCFPPATPCDGGCDQGLVPIPLLANLSVEAQPPWLPGLEARYMAFAHDLMADAQRQDRPFFLYYASHHTHYPQFSGQSFAERSGRGPFGDSLMELDAAVGTLMTAIGDLGLLEETLVIFTADNGPETMRMSRGGCSGLLRCGKGTTYEGGVREPALAFWPGHIAPGVTHELASSLDLLPTLAALAGAPLPNVTLDGFDLSPLLLGTGKSPRQSLFFYPSYPDEVRGVFAVRTGKYKAHFFTQGSAHSDTTADPACHASSSLTAHEPPLLYDLSKDPGENYNLLGGVAGATPEVLQALKQLQLLKAQLDAAVTFGPSQVARGEDPALQICCHPGCTPRPACCHCPDPHA
partner: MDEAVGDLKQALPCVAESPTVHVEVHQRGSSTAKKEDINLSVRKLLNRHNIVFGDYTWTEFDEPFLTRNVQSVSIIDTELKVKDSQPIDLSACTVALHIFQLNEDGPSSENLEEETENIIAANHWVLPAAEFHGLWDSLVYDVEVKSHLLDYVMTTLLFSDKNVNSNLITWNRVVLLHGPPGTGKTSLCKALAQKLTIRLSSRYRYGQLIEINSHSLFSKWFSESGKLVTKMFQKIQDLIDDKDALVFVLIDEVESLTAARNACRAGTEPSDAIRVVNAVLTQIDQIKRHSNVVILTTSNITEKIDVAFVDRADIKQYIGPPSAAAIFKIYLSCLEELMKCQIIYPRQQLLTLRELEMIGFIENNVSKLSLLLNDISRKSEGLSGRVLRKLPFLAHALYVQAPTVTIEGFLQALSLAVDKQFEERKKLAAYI
B4: PiggyBac transposable element-derived protein 1 (Homo sapiens), Q96JS3 (parent)
chain: MYEALPGPAPENEDGLVKVKEEDPTWEQVCNSQEGSSHTQEICRLRFRHFCYQEAHGPQEALAQLRELCHQWLRPEMHTKEQIMELLVLEQFLTILPKELQPCVKTYPLESGEEAVTVLENLETGSGDTGQQASVYIQGQDMHPMVAEYQGVSLECQSLQLLPGITTLKCEPPQRPQGNPQEVSGPVPHGSAHLQEKNPRDKAVVPVFNPVRSQTLVKTEEETAQAVAAEKWSHLSLTRRNLCGNSAQETVMSLSPMTEEIVTKDRLFKAKQETSEEMEQSGEASGKPNRECAPQIPCSTPIATERTVAHLNTLKDRHPGDLWARMHISSLEYAAGDITRKGRKKDKARVSELLQGLSFSGDSDVEKDNEPEIQPAQKKLKVSCFPEKSWTKRDIKPNFPSWSALDSGLLNLKSEKLNPVELFELFFDDETFNLIVNETNNYASQKNVSLEVTVQEMRCVFGVLLLSGFMRHPRREMYWEVSDTDQNLVRDAIRRDRFELIFSNLHFADNGHLDQKDKFTKLRPLIKQMNKNFLLYAPLEEYYCFDKSMCECFDSDQFLNGKPIRIGYKIWCGTTTQGYLVWFEPYQEESTMKVDEDPDLGLGGNLVMNFADVLLERGQYPYHLCFDSFFTSVKLLSALKKKGVRATGTIRENRTEKCPLMNVEHMKKMKRGYFDFRIEENNEIILCRWYGDGIISLCSNAVGIEPVNEVSCCDADNEEIPQISQPSIVKVYDECKEGVAKMDQIISKYRVRIRSKKWYSILVSYMIDVAMNNAWQLHRACNPGASLDPLDFRRFVAHFYLEHNAHLSD
partner: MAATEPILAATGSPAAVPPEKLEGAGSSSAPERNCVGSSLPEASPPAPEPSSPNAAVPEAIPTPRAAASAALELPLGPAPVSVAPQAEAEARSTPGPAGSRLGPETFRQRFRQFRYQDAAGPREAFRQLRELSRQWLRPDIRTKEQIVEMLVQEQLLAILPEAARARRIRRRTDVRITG
B5: PiggyBac transposable element-derived protein 1 (Homo sapiens), Q96JS3 (parent)
chain: B4 chain

Variants of: B1
Conditions: with bni3l_human BNIP3L

| effect of a mutation on the interaction | Variant |
| --- | --- |
| with no effect | Y111H |

Variants of: B1
Conditions: with sgta_human SGTA

| effect of a mutation on the interaction | Variant |
| --- | --- |
| with no effect | Y111H |

Variants of: B2
Conditions: with RBPMS

| effect of a mutation on the interaction | Variant |
| --- | --- |
| with no effect | P230A |
| with no effect | L99I |
| with no effect | T49M |
| with no effect | C285Y |

Variants of: B3
Conditions: with pch2_human TRIP13, Q15645

| effect of a mutation on the interaction | Variant |
| --- | --- |
| with no effect | N350S |
| with no effect | Y201C |

Variants of: B4
Conditions: with scnd1_human SCAND1, P57086

| Variant | effect of a mutation on the interaction |
| --- | --- |
| I678V | with no effect |
| Q248E | with no effect |
| P256L | with no effect |

Continued, values first:

| effect of a mutation on the interaction | Variant |
| --- | --- |
| with no effect | G244E |
| with no effect | H806D |

Variants of: B5
Conditions: with NR4A1, P22736-2
NR4A1, P22736-2, sequence (P22736 other isoform, or with tags, fused parts or gaps): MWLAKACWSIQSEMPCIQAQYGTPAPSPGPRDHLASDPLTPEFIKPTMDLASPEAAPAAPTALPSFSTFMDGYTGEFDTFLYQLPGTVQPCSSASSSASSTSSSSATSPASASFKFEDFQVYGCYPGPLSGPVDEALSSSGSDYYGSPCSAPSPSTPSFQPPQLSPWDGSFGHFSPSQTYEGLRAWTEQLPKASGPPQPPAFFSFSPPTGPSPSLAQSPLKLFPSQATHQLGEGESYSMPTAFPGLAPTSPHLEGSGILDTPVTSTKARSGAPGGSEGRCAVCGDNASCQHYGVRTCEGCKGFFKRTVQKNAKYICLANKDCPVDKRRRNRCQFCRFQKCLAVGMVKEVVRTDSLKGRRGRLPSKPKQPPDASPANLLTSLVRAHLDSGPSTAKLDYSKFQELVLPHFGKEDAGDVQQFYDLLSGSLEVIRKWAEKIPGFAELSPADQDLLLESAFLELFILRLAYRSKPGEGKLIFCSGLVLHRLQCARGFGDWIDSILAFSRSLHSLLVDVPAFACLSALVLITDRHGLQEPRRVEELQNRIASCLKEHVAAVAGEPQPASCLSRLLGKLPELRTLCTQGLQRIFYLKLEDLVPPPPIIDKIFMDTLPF

| effect of a mutation on the interaction | Variant |
| --- | --- |
| with no effect | G244E |
| with no effect | H806D |

Variants of: B5
Conditions: with znf24_human ZNF24, P17028
znf24_human ZNF24, P17028, sequence (P17028 whole entry): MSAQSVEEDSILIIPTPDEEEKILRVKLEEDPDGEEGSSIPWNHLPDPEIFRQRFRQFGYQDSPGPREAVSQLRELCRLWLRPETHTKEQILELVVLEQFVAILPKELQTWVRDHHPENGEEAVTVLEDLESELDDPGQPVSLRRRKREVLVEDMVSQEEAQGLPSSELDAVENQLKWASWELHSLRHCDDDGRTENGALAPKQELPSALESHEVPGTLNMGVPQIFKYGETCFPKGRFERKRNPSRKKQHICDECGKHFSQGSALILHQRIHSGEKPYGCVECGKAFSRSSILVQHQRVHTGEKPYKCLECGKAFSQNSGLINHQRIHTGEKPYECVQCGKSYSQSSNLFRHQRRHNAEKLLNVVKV

| effect of a mutation on the interaction | Variant |
| --- | --- |
| with no effect | G244E |
| with no effect | H806D |

Variants of: B5
Conditions: with zn496_human ZNF496, Q96IT1
zn496_human ZNF496, Q96IT1, sequence (Q96IT1 whole entry): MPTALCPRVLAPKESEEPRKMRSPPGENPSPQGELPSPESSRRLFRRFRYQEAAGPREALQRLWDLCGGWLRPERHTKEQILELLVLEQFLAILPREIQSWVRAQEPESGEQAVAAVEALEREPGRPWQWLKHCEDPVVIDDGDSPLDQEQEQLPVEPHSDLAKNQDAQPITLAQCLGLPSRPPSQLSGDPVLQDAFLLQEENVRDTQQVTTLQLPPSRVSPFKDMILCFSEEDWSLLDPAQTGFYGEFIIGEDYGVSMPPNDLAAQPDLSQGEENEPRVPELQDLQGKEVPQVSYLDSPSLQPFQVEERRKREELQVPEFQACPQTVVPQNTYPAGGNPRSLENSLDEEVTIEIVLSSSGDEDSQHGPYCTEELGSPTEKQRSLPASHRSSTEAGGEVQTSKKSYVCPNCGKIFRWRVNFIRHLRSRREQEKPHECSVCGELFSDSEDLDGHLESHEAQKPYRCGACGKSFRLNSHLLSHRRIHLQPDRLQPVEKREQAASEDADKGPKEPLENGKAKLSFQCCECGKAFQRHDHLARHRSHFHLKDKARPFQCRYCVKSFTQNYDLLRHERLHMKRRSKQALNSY

| effect of a mutation on the interaction | Variant |
| --- | --- |
| with no effect | G244E |
| with no effect | H806D |

Variants of: B5
Conditions: with zsc22_human ZSCAN22, P10073
zsc22_human ZSCAN22, P10073, sequence (P10073 whole entry): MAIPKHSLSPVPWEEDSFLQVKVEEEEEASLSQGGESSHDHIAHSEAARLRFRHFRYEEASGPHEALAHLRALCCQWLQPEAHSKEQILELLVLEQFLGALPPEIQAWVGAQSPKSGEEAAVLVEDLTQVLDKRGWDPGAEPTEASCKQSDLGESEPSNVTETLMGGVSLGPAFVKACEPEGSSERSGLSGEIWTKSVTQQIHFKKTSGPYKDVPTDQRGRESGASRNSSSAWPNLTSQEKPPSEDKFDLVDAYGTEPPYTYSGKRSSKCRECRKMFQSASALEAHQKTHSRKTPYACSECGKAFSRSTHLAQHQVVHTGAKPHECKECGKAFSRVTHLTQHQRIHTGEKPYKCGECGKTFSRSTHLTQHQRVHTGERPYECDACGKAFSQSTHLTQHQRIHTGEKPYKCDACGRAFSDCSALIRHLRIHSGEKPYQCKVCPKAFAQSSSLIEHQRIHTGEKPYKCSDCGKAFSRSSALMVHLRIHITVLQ

| effect of a mutation on the interaction | Variant |
| --- | --- |
| with no effect | G244E |
| with no effect | H806D |

Variants of: B5
Conditions: with meox2_human MEOX2, P50222
meox2_human MEOX2, P50222, sequence (P50222 whole entry): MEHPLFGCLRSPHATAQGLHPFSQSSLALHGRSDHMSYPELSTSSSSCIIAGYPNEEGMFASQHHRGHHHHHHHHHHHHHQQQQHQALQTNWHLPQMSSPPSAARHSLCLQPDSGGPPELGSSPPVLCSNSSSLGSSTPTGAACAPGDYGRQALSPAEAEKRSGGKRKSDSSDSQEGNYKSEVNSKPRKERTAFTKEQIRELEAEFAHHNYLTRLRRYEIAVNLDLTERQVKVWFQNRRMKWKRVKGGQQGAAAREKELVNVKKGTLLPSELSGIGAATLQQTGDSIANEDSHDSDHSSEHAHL

| effect of a mutation on the interaction | Variant |
| --- | --- |
| with no effect | G244E |
| with no effect | H806D |

Source: IntAct's records for PubMed 25910212
